Measurements taken from patent publication US9284543B2, “Neutral active soluble truncated PH20 polypeptides and uses thereof” (Halozyme, Inc., priority 2008, dated 2016).
Each block holds one molecule with its values, some of them ahead of it.

Key:
[1] = Microtiter hyaluronidase activity assay with biotinylated-hyaluronic acid; type: biochemical; details: for pH 5.5 Activity / pH 7.4 Activity: 72 hour post transfection supernatant
CHO-S cells [2] = experiment: PI-PLC treatment of expressing cells, Western blot of media and cells; type: cell-based, Chinese Hamster; details: cells incubated with PI-PLC for 2 hours
Procedure: In this example, following transient expression, as described in Example 2 above, the media and cells were harvested separately and analyzed for PH20 expression and solublility by Western blot analysis. Solubility of the C-terminus truncation mutants was determined by examining whether the expressed protein was present in the growth media or in the cells. […] Cells expressing these mutants were treated with phosphoinositol-phospholipase C (PI-PLC), which cleaves the GPI-anchor allowing the release of soluble protein into the media, and the presence of PH20 in the resulting media and cells was determined by Western blot analysis.
Following expression of rHuPH20 in CHO—S cells for 72 hours, as described in Example 2A above, the media and cells were harvested separately. The cells were washed with serum-free media followed by the addition of 2 mL serum-free media per well. PI-PLC (0.5 units/well) was added to each well and the cells were incubated in the PI-PLC for 2 hours. The resultant media and cells were analyzed by Western blot analysis as described above.
Two plates each of rHuPH20 expressing CHO—S cells, one for treatment with PI-PLC and one without treatment with PI-PLC, were prepared for each C-terminus mutant as described in Example 2B above. Following expression for 48 hours, for cells untreated with PI-PLC, the media and cells were harvested separately. The harvested media was spun down, concentrated to a volume of 10 mL, and buffer exchanged into PBS using an Amicon 30 kD MWCO concentrator. The cells were rinsed with cold PBS and scraped and resuspended in 1.2 mL PBS with protease inhibitor Set III (Cat No. 539134, Calbiochem). The resuspended cells were briefly sonicated to prepare whole-cell extract. For PI-PLC treatment of cells, following expression for 48 hours, the untreated media was harvested, as described above. The cells were rinsed once with fresh CD DG44 medium with Glutamax-1, and the media was replaced with 12 mL fresh detergent free CD DG44 medium supplemented with Glutamax-1 with 3.0 units PI-PLC per dish, and the cells were incubated for 2 hours at 37° C. with 5% CO2. After 2 hours, the PI-PLC media and cells were harvested separately, as described above. The resultant untreated media and cells, and PI-PLC treated media and cells, were analyzed by Western blot analysis as described above.

[3] = Triton X-114 partition assay; type: physicochemical; details: partition into aqueous phase of Triton X-114 at 37° C.
Procedure: Solubility of a hyaluronidase can be determined by any method known to one of the skill in the art. One method for determining solubility is by detergent partitioning. […] For example, the solubility of the PH20 polypeptides described herein is assessed as described in Example 4. Membrane-anchored hyaluronidases, such as lipid-anchored hyaluronidases, including GPI-anchored hyaluronidases, will partition into the detergent-rich phase, but will partition into the detergent-poor or aqueous phase following treatment with Phospholipase C. Phospholipase C is an enzyme that cleaves the […] found in GPI-anchored proteins. Treatment with PLC will cause release of GPI-linked proteins from the outer cell membrane.
The samples were heated to 37° C. for 3 minutes to induce phase separation and centrifuged for 3 min at 4000 g at room temperature. Aqueous and detergent phases were removed for SDS-PAGE analysis and Western blotting. Rabbit anti-PH20 IgG (0.5 μg/mL) was used as the primary antibody and HRP-conjugated goat anti-Rabbit IgG (0.1 ng/mL, Cat#DC03L, EMD) was used as the secondary antibody. Full length human PH20, which partitions strongly into the detergent phase, was used as a control.

CHO-S cells [4] = experiment: Western blot analysis of PH20 expression in media and cells after transient expression; type: cell-based, Chinese Hamster; details: media versus cells
How it was run: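 PH20 expression and solubility were judged by anti-PH20 Western blot of non-reduced media and cell fractions, with expression shown by a ~66 kDa band. Samples came from CHO-S cells transiently transfected (GeneJuice) with mutant PH20-HZ24 DNA and cultured 48-72 h. GPI-anchored mutants were cleaved with PI-PLC to release soluble protein.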

B2: SPAM1-IISS: C-terminally truncated human PH20, precursor 505 aa (SEQ ID NO:4), mature 470 aa (SEQ ID NO:56) (protein, listed as Homo sapiens)
chain 1: MGVLKFKHIFFRSFVKSSGVSQIVFTFLLIPCCLTLNFRAPPVIPNVPFLWAWNAPSEFCLGKFDEPLDMSLFSFIGSPRINATGQGVTIFYVDRLGYYPYIDSITGVTVNGGIPQKISLQDHLDKAKKDITFYMPVDNLGMAVIDWEEWRPTWARNWKPKDVYKNRSIELVQQQNVQLSLTEATEKAKQEFEKAGKDFLVETIKLGKLLRPNHLWGYYLFPDCYNHHYKKPGYNGSCFNVEIKRNDDLSWLWNESTALYPSIYLNTQQSPVAATLYVRNRVREAIRVSKIPDAKSPLPVFAYTRIVFTDQVLKFLSQDELVYTFGETVALGASGIVIWGTLSIMRSMKSCLLLDNYMETILNPYIINVTLAAKMCSQVLCQEQGVCIRKNWNSSDYLHLNPDNFAIQLEKGGKFTVRGKPTLEDLEQFSEKFYCSCYSTLSCKEKADVKDTDAVDVCIADGVCIDAFLKPPMETEEPQIFYNASPSTLSATMFIVSILFLIISS
chain 2: LNFRAPPVIPNVPFLWAWNAPSEFCLGKFDEPLDMSLFSFIGSPRINATGQGVTIFYVDRLGYYPYIDSITGVTVNGGIPQKISLQDHLDKAKKDITFYMPVDNLGMAVIDWEEWRPTWARNWKPKDVYKNRSIELVQQQNVQLSLTEATEKAKQEFEKAGKDFLVETIKLGKLLRPNHLWGYYLFPDCYNHHYKKPGYNGSCFNVEIKRNDDLSWLWNESTALYPSIYLNTQQSPVAATLYVRNRVREAIRVSKIPDAKSPLPVFAYTRIVFTDQVLKFLSQDELVYTFGETVALGASGIVIWGTLSIMRSMKSCLLLDNYMETILNPYIINVTLAAKMCSQVLCQEQGVCIRKNWNSSDYLHLNPDNFAIQLEKGGKFTVRGKPTLEDLEQFSEKFYCSCYSTLSCKEKADVKDTDAVDVCIADGVCIDAFLKPPMETEEPQIFYNASPSTLSATMFIVSILFLIISS
modifications: HuPH20 precursor 1-505; mature HuPH20 36-505
pH 5.5 Activity ([1]; Table 6): 0.837 Units/ml
pH 7.4 Activity ([1]; Table 6): 1.458 Units/ml
pH 5.5 Activity ([1]; Table 6A): 0.932 Units/ml
pH 7.4 Activity ([1]; Table 6A): 1.863 Units/ml
Expressed in Media Following Addition of PI-PLC (CHO-S cells [2]): YES

B3: SPAM1-FLII: C-terminally truncated human PH20, precursor 503 aa (SEQ ID NO:5), mature 468 aa (SEQ ID NO:57) (protein, listed as Homo sapiens)
chain 1: MGVLKFKHIFFRSFVKSSGVSQIVFTFLLIPCCLTLNFRAPPVIPNVPFLWAWNAPSEFCLGKFDEPLDMSLFSFIGSPRINATGQGVTIFYVDRLGYYPYIDSITGVTVNGGIPQKISLQDHLDKAKKDITFYMPVDNLGMAVIDWEEWRPTWARNWKPKDVYKNRSIELVQQQNVQLSLTEATEKAKQEFEKAGKDFLVETIKLGKLLRPNHLWGYYLFPDCYNHHYKKPGYNGSCFNVEIKRNDDLSWLWNESTALYPSIYLNTQQSPVAATLYVRNRVREAIRVSKIPDAKSPLPVFAYTRIVFTDQVLKFLSQDELVYTFGETVALGASGIVIWGTLSIMRSMKSCLLLDNYMETILNPYIINVTLAAKMCSQVLCQEQGVCIRKNWNSSDYLHLNPDNFAIQLEKGGKFTVRGKPTLEDLEQFSEKFYCSCYSTLSCKEKADVKDTDAVDVCIADGVCIDAFLKPPMETEEPQIFYNASPSTLSATMFIVSILFLII
chain 2: LNFRAPPVIPNVPFLWAWNAPSEFCLGKFDEPLDMSLFSFIGSPRINATGQGVTIFYVDRLGYYPYIDSITGVTVNGGIPQKISLQDHLDKAKKDITFYMPVDNLGMAVIDWEEWRPTWARNWKPKDVYKNRSIELVQQQNVQLSLTEATEKAKQEFEKAGKDFLVETIKLGKLLRPNHLWGYYLFPDCYNHHYKKPGYNGSCFNVEIKRNDDLSWLWNESTALYPSIYLNTQQSPVAATLYVRNRVREAIRVSKIPDAKSPLPVFAYTRIVFTDQVLKFLSQDELVYTFGETVALGASGIVIWGTLSIMRSMKSCLLLDNYMETILNPYIINVTLAAKMCSQVLCQEQGVCIRKNWNSSDYLHLNPDNFAIQLEKGGKFTVRGKPTLEDLEQFSEKFYCSCYSTLSCKEKADVKDTDAVDVCIADGVCIDAFLKPPMETEEPQIFYNASPSTLSATMFIVSILFLII
modifications: HuPH20 precursor 1-503; mature HuPH20 36-503
pH 5.5 Activity ([1]; Table 6): 0.6345 Units/ml
pH 7.4 Activity ([1]; Table 6): 0.9405 Units/ml
pH 5.5 Activity ([1]; Table 6A): 0.648 Units/ml
pH 7.4 Activity ([1]; Table 6A): 1.094 Units/ml
Expressed in Media Following Addition of PI-PLC (CHO-S cells [2]): YES

The next lines start with results.

pH 5.5 Activity ([1]; Table 6): 0.891 Units/ml
pH 7.4 Activity ([1]; Table 6): 1.8045 Units/ml
B1: SPAM1-VASL: full length human PH20, precursor 509 aa (SEQ ID NO:1), mature 474 aa (SEQ ID NO:108) (protein, listed as Homo sapiens)
chain: MGVLKFKHIFFRSFVKSSGVSQIVFTFLLIPCCLTLNFRAPPVIPNVPFLWAWNAPSEFCLGKFDEPLDMSLFSFIGSPRINATGQGVTIFYVDRLGYYPYIDSITGVTVNGGIPQKISLQDHLDKAKKDITFYMPVDNLGMAVIDWEEWRPTWARNWKPKDVYKNRSIELVQQQNVQLSLTEATEKAKQEFEKAGKDFLVETIKLGKLLRPNHLWGYYLFPDCYNHHYKKPGYNGSCFNVEIKRNDDLSWLWNESTALYPSIYLNTQQSPVAATLYVRNRVREAIRVSKIPDAKSPLPVFAYTRIVFTDQVLKFLSQDELVYTFGETVALGASGIVIWGTLSIMRSMKSCLLLDNYMETILNPYIINVTLAAKMCSQVLCQEQGVCIRKNWNSSDYLHLNPDNFAIQLEKGGKFTVRGKPTLEDLEQFSEKFYCSCYSTLSCKEKADVKDTDAVDVCIADGVCIDAFLKPPMETEEPQIFYNASPSTLSATMFIVSILFLIISSVASL
modifications: Human PH20 cDNA encoding amino acids 1-509
Expressed in Media Following Addition of PI-PLC (CHO-S cells [2]): YES
Soluble ([3]; listed as Full length PH20): insoluble

pH 5.5 Activity ([1]; Table 6A): 0.203 Units/ml
pH 7.4 Activity ([1]; Table 6A): 0.527 Units/ml
B4: SPAM1-IVSI: C-terminally truncated human PH20, precursor 498 aa (SEQ ID NO:49), mature 463 aa (SEQ ID NO:101) (protein, listed as Homo sapiens)
chain 1: MGVLKFKHIFFRSFVKSSGVSQIVFTFLLIPCCLTLNFRAPPVIPNVPFLWAWNAPSEFCLGKFDEPLDMSLFSFIGSPRINATGQGVTIFYVDRLGYYPYIDSITGVTVNGGIPQKISLQDHLDKAKKDITFYMPVDNLGMAVIDWEEWRPTWARNWKPKDVYKNRSIELVQQQNVQLSLTEATEKAKQEFEKAGKDFLVETIKLGKLLRPNHLWGYYLFPDCYNHHYKKPGYNGSCFNVEIKRNDDLSWLWNESTALYPSIYLNTQQSPVAATLYVRNRVREAIRVSKIPDAKSPLPVFAYTRIVFTDQVLKFLSQDELVYTFGETVALGASGIVIWGTLSIMRSMKSCLLLDNYMETILNPYIINVTLAAKMCSQVLCQEQGVCIRKNWNSSDYLHLNPDNFAIQLEKGGKFTVRGKPTLEDLEQFSEKFYCSCYSTLSCKEKADVKDTDAVDVCIADGVCIDAFLKPPMETEEPQIFYNASPSTLSATMFIVSI
chain 2: LNFRAPPVIPNVPFLWAWNAPSEFCLGKFDEPLDMSLFSFIGSPRINATGQGVTIFYVDRLGYYPYIDSITGVTVNGGIPQKISLQDHLDKAKKDITFYMPVDNLGMAVIDWEEWRPTWARNWKPKDVYKNRSIELVQQQNVQLSLTEATEKAKQEFEKAGKDFLVETIKLGKLLRPNHLWGYYLFPDCYNHHYKKPGYNGSCFNVEIKRNDDLSWLWNESTALYPSIYLNTQQSPVAATLYVRNRVREAIRVSKIPDAKSPLPVFAYTRIVFTDQVLKFLSQDELVYTFGETVALGASGIVIWGTLSIMRSMKSCLLLDNYMETILNPYIINVTLAAKMCSQVLCQEQGVCIRKNWNSSDYLHLNPDNFAIQLEKGGKFTVRGKPTLEDLEQFSEKFYCSCYSTLSCKEKADVKDTDAVDVCIADGVCIDAFLKPPMETEEPQIFYNASPSTLSATMFIVSI
modifications: HuPH20 precursor 1-498; Mature HuPH20 36-498
Expressed in Media (CHO-S cells [4]): YES
Hyaluronidase activity (in words) ([1]; pH 7.4 and pH 5.5): little detectable activity
Expressed in Media Following Addition of PI-PLC (CHO-S cells [2]): Initially in media
Soluble [3]: YES
